Target: Human properdin (factor P) (human) (UniProt P27918)
Test: SPR; FP immobilised by amine coupling to 79.55 RU; FXI or FXIa injected by OneStep gradient, maximum 50 nM, 30 uL/min, dissociation 300 s; Pall/ForteBio Pioneer; run in triplicate

Chain of UniProt P27918 (P27918 28-469): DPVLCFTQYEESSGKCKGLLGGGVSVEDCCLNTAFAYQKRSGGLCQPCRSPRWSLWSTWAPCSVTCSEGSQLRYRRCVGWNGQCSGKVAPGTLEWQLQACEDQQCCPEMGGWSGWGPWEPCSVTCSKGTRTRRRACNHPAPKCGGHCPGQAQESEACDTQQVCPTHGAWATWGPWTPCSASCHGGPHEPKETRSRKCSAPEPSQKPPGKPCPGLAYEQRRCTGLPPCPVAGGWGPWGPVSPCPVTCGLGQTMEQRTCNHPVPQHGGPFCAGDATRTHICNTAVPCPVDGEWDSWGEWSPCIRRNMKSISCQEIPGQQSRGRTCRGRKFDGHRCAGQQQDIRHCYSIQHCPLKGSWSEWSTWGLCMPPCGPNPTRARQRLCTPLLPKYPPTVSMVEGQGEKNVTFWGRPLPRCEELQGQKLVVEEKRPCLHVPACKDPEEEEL

| Substance | Kd |
| --- | --- |
| Human activated coagulation factor XI (preactivated by FXIIa) (enzyme) | 0.35 nM |
| Human coagulation factor XI zymogen (natural protein) | 16.1 nM |

From paper PMC9130567
